Experimental data reported in US8349318B2, “Use of specifically engineered enzymes to enhance the efficacy of prodrugs” (The Board of Trustees of the University of Illinois, priority 2008, dated 2013).

How the values were obtained:
[1] = tested on: T1, Cc1cn([C@@H]2C[C@@H](O)[C@H](CO)O2)c(=O)[nH]c1=O; experiment: Kinetic assay of nucleoside phosphorylation by R104Q-D133A dCK; assay type: biochemical, human; details: other: nucleoside 200 uM, 1 mM ATP
T1 construct: made in house

[2] = tested on: Nc1ccn([C@@H]2O[C@H](CO)[C@@H](O)C2(F)F)c(=O)n1; experiment: purified protein, by the assay type; details: other: Table 9; pH 7.5; 37.0 °C
[3] = tested on: Nc1nc2c(ncn2[C@H]2C[C@H](O)[C@@H](CO)O2)c(=O)[nH]1; experiment: purified protein, by the assay type; details: other: Table 9; pH 7.5; 37.0 °C
[4] = tested on: Cc1cn([C@@H]2C[C@@H](O)[C@H](CO)O2)c(=O)[nH]c1=O; experiment: purified protein, by the assay type; details: other: Table 9; pH 7.5; 37.0 °C

Wild Type dCK (Homo sapiens), sequence (chain, as listed by the source): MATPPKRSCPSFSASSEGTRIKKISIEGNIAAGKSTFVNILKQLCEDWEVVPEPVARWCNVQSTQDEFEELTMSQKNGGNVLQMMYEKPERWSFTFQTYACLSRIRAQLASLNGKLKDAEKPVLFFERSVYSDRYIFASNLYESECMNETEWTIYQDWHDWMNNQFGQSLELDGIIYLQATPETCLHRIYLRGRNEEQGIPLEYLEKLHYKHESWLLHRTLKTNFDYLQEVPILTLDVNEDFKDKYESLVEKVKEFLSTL
dCK R104L/D133A (Homo sapiens; D133A/R104L), sequence (chain, as listed by the source R104L D133A D133A R104L): as the sequence (chain, as listed by the source) above, with R104L, D133A counted along it
R104Q-D133A dCK (Homo sapiens; D133A/R104Q), sequence (chain, as listed by the source R104Q D133A D133A R104Q): as the sequence (chain, as listed by the source) above, with R104Q, D133A counted along it

R104Q-D133A dCK (Homo sapiens; D133A/R104Q)
kcat [1]: 0.24 s⁻¹

Wild Type dCK (Homo sapiens)
Km [2]: 16.1 ± 3.5 µM | kcat [2]: 0.39 ± 0.03 s⁻¹ | Km [3]: 231.0 ± 20.0 µM | kcat [3]: 2.60 ± 0.10 s⁻¹

dCK R104L/D133A (Homo sapiens; D133A/R104L)
Km [4]: 17.8 ± 1.6 µM | kcat [4]: 1.33 ± 0.01 s⁻¹ | Km [2]: 33.8 ± 5.3 µM | kcat [2]: 2.01 ± 0.08 s⁻¹ | Km [3]: 2266 ± 823 µM | kcat [3]: 3.66 ± 0.01 s⁻¹
